# From patent US20180335435A1 (METAFORA BIOSYSTEMS, published 2018)
# Molecular target: T1, human CAT1 (cationic amino acid transporter-1, SLC7A1) (human, UniProt P30825 1-629)
# T1 construct: Endogenous on HEK293T cells or expressed from a human CAT1 vector in QT6, HEK293T or CHO cells; also called CAT1/SLC7A1; Hu-CAT1
# Assay: flow cytometry on HEK293T cells transfected with siRNA to CAT1 (n=3)
# T1 sequence (P30825 whole entry): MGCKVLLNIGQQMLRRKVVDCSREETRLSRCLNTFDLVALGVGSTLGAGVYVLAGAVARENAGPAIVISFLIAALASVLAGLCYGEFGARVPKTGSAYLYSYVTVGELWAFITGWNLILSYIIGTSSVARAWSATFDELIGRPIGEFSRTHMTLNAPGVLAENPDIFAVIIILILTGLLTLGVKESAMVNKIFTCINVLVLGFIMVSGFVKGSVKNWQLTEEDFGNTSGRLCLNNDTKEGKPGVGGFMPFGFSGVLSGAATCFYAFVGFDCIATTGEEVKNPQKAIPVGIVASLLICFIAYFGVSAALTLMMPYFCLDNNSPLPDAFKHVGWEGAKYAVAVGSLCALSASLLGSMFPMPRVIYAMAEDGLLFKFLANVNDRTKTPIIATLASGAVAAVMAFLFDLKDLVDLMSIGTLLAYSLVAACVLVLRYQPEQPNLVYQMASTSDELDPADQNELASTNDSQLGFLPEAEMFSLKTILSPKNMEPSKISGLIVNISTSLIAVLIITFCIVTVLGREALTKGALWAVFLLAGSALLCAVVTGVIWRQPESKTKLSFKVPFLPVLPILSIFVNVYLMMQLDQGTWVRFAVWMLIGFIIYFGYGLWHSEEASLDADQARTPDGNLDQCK
binder,measurement,value
"BLV.RBD-mFc ligand (receptor-binding domain of the bovine leukemia virus envelope glycoprotein tagged in frame with the constant fragment of mouse … (Fc fusion, Used as a 1/10 dilution, detected with anti-mouse IgG1-Alexa Fluor 488; also called BLV.RBD ligand; BLV.RBD tagged with mouse Fc (mFc)) WRCSLSLGNQQWMTTYNQEAKFFISIDQILEAHNQSPFCPRSPRYTLDFVNGYPKIYWPPPQGRRRFGARAMVTYDCEPRCPYVGADHFDCPHWDNASQADQGSFYVNHQTLFLHLKQCHGIFTLTWEIWGYDPLITFSLHKIPAPPQGSVDVPRDCGCKPCICTVPEVSSVFIFPPKPKDVLTITLTPKVTCVVVDISKDDPEVQFSWFVDDVEVHTAQTQPREEQFNSTFRSVSELPIMHQDWLNGKEFKCRVNSAAFPAPIEKTISKTKGRPKAPQVYTIPPPKEQMAKDKVSLTCMITDFFPEDITVEWQWNGQPAENYKNTQPIMDTDGSYFVYSKLNVQKSNWEAGNTFTCSVLHEGLHNHHTEKSLSHSPGK",fold decrease of binding after siRNA against CAT1 mRNA,3.5 fold
